Data: paper PMC5679652, “Broadening the functionality of a J-protein/Hsp70 molecular chaperone system” (PLoS Genetics, 2017)
One block for each molecule: values may come before it. Where no end group is shown, it is not given here. Flc = fluorescein label

Experiments:
[1] = target: T1, Ssa1 (wild type, His-tagged) (S. cerevisiae, UniProt P10591 1-642)
T1 construct: Ssa1, cytosolic Hsp70 of Saccharomyces cerevisiae; Ssa1(1-532) is said to lack 110 residues, so the whole protein has 642 residues; Assayed with 1 mM ADP (anisotropy) or as a preformed 32P-ATP complex (ATPase); also called WT Ssa1; His-Ssa
T1 sequence (P10591 whole entry): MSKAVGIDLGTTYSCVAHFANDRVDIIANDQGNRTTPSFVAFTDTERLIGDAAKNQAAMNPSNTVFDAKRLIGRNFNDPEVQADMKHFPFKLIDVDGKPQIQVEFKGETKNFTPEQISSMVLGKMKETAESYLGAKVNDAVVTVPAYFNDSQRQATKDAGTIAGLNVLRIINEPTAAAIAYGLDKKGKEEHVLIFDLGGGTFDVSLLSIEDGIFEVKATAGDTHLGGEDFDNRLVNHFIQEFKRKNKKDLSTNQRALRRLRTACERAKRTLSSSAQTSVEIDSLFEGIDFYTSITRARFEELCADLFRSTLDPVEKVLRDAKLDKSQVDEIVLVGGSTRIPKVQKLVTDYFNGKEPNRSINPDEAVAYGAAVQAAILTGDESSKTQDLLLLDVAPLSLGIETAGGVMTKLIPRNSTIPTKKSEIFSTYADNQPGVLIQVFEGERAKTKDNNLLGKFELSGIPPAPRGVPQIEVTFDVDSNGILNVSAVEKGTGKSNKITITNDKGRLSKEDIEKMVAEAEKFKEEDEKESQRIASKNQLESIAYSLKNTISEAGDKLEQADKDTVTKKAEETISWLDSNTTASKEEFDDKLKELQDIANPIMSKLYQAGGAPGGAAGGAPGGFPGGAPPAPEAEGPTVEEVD

[2] = target: T1, Ssa1 (wild type, His-tagged); test: fluorescence polarisation; dissociation kinetics: 5 uM Ssa1, 10 nM F-P5, 1 mM ADP brought to equilibrium, then unlabeled P5 added to 40 uM; read every 10 s; percent of the signal at t = 0; conditions: both partners purified
Ssa1 K446E (His-tagged) [3] = target: T2, Ssa1 K446E (His-tagged) (S. cerevisiae, UniProt P10591 1-642, K446E); test: cell-based or functional assay
T2 sequence (P10591 whole entry K446E): as the sequence (P10591 whole entry) above, with K446E counted along it

Ssa1 R444E (His-tagged) [4] = target: T3, Ssa1 R444E (His-tagged) (S. cerevisiae, UniProt P10591 1-642, R444E); test: cell-based or functional assay
T3 sequence (P10591 whole entry R444E): as the sequence (P10591 whole entry) above, with R444E counted along it

Ssa1 K446E (His-tagged) [5] = target: T2, Ssa1 K446E (His-tagged); test: fluorescence polarisation; equilibrium titration: 10 nM F-P5 with Ssa1 in 2-fold steps from 2.4 nM to 5 uM, 1 mM ADP, buffer A (25 mM Hepes-KOH pH 7.5, 100 mM KCl, 11 mM MgOAc), 4% glycerol, 0.005% NP-40, 24 hr at room temperature (23°C); one site saturation fit; conditions: both partners purified
Ssa1 R444E (His-tagged) [6] = target: T3, Ssa1 R444E (His-tagged); test: as above; conditions: both partners purified
[7] = target: T1, Ssa1 (wild type, His-tagged); test: as above; conditions: both partners purified

stimulation of single-turnover ATPase activity of the 32P-ATP/Ssa1 complex, compared with WT Ydj1 (% less active than WT) [1]: 20
Molecule: Ydj1 G70N (from UniProt P25491 1-409) (natural protein)

binding result [2]: binds
fold stimulation of single-turnover ATPase activity of the 32P-ATP/Ssa1 complex by peptide P5, relative to basal activity (four P5 concentrations; value at 133 uM) (Ssa1 K446E (His-tagged) [3]): 2.8 fold
fold stimulation of single-turnover ATPase activity of the 32P-ATP/Ssa1 complex by peptide P5, relative to basal activity (four P5 concentrations; value at 133 uM) (Ssa1 R444E (His-tagged) [4]): 1.7 fold
B1: peptide P5 (unlabeled) (peptide)
peptide: CALLLSAPRR
notes: peptide substrate P5; also called unlabeled P5; peptide substrate; source: bought: Sigma Chemical, St. Louis, MO

binding result (Ssa1 K446E (His-tagged) [5]): binds
binding result (Ssa1 R444E (His-tagged) [6]): binds
binding result [7]: binds
B2: fluorescein-labeled P5 peptide (peptide)
peptide: Flc-CALLLSAPRR
notes: peptide substrate P5; also called F-P5; source: bought: Sigma Chemical, St. Louis, MO
